One may read the Kd as the free concentration of one partner at which half of the binding sites on the other are occupied at equilibrium, for simple one-to-one binding.

Experiment [1] has as its target T1, pyr-apelin-13-biotin (pE-RPRLSHKGPMPF-biotin) (N-terminal pyroglutamate (pE); C-terminal biotin).
T1 construct: also called pyrAPL13-Biotin
T1 peptide: ERPRLSHKGPMPF
Briefly: SPR (Biacore), pyr-apelin-13-biotin on streptavidin chip. The procedure: (§1) Anti-apelin mAbs at four different concentrations (12.5 nM, 25 nM, 50 nM and 100 nM) were captured on the chip surface. The on- and off-rate for antibody-antigen binding were measured, curve fitted and calculated.

Another experiment addresses T2, APL17-Biotin.
T2 peptide: KFRRQRPRLSHKGPMPF-biotin
Briefly: ELISA, peptide on neutravidin plate, mAb 200 ng/ml, A405. On the procedure: (§2) FIGS. 1A-1C show binding of anti-apelin mAbs to various biotinylated apelin peptides measured by ELISA. Biotinylated apelin peptides were immobilized on ELISA plates coated with neutravidin and purified recombinant rabbit anti-apelin mAbs were added for binding to the peptides on the plates. The binding was detected by adding a goat anti-rabbit IgG Fc-conjugated to alkaline phosphatase and PNPP substrate, and measured as the absorbance at 405 nm.
(§3) For the binding assay, neutravidin in carbonate coating buffer was coated on high binding ELISA plates at 1 μg/ml overnight. Peptides were added at 4 μg/ml after the plates were blocked with 1% BSA in TBS. After incubation of the plates at room temperature for 60 minutes, the plates were washed and then purified recombinant rabbit antibodies were added at 200 ng/ml. Following rabbit antibody binding to the peptides on the plates at room temperature for 90 minutes, goat anti-rabbit IgG Fc-conjugated to alkaline phosphatase was added, and antibody-antigen binding was detected by adding PNPP substrate and reading absorbance of ELISA plates at 405 nm. Each mAb was assayed in duplicate.
A general note: ELISA stands for enzyme-linked immunosorbent assay.

A further experiment has as its target T3, Biotin-APL17.
T3 peptide: Biotin-KFRRQRPRLSHKGPMPF
Described as above. The procedure: as §2, §3

In experiment [2] the target is T4, apelin peptide 1-10 (QRPRLSHKGP).
T4 peptide: QRPRLSHKGP
Briefly: competition ELISA, captured mAb, peptide competes with apelin-13-biotin, A405.

Experiment [3] has as its target T5, apelin peptide 1-7 (QRPRLSH).
T5 peptide: QRPRLSH
Described as above.

For experiment [4], the target named is T6, apelin peptide 1-9 (QRPRLSHKG).
T6 peptide: QRPRLSHKG
The description is as above.

Experiment [5] has as its target T7, apelin peptide 1-11 (QRPRLSHKGPM).
T7 peptide: QRPRLSHKGPM
The description is as above.

The target in experiment [6] is T8, 1-4.
T8 construct: also called apelin peptide 1-4 (QRPR)
T8 peptide: QRPR
Described as above.

Experiment [7] concerns the target T9, apelin peptide 1-5 (QRPRL).
T9 peptide: QRPRL
The experiment is described as above.

Experiment [8] concerns the target T10, apelin 17 (competition peptide 1-17, KFRRQRPRLSHKGPMPF).
T10 peptide: KFRRQRPRLSHKGPMPF
The description is as above.

The target in experiment [9] is T11, apelin peptide 1-8 (QRPRLSHK).
T11 peptide: QRPRLSHK
The experiment is described as above.

Experiment [10] has as its target T12, apelin peptide 1-12 (QRPRLSHKGPMP).
T12 peptide: QRPRLSHKGPMP
The experiment is described as above.

For experiment [11], the target named is T13, apelin peptide 1-6 (QRPRLS).
T13 peptide: QRPRLS
The description is as above.

Experiment [12] addresses T14, apelin peptide 2-13 (RPRLSHKGPMPF).
T14 peptide: RPRLSHKGPMPF
The description is as above.

The target in experiment [13] is T15, apelin-13-biotin (…-biotin) (C-terminal biotin).
T15 construct: also called APL13-Biotin
Briefly: SPR (Biacore), apelin-13-biotin on streptavidin chip. The procedure: as §1

Experiment [14] deals with T16, alanine scanning peptide 1A (ARPRL).
T16 peptide: ARPRL
Kind of experiment: competition ELISA, captured mAb, peptide competes with apelin-13-biotin, A405. The procedure:
(§4) Each peptide or control sample was assayed in duplicate for a given mAb.

In experiment [15] the target is T17, alanine scanning peptide 2A (QAPRL).
T17 peptide: QAPRL
The experiment is described as above. The procedure:
as §4

The target in experiment [16] is T18, alanine scanning peptide 3A (QRARL).
T18 peptide: QRARL
Described as above. The procedure: as §4

In experiment [17] the target is T19, alanine scanning peptide 4A (QRPAL).
T19 peptide: QRPAL
Described as above. The procedure: as §4

The target in experiment [18] is T20, alanine scanning peptide 5A (QRPRA).
T20 peptide: QRPRA
Described as above. The procedure: as §4

Experiment [19] addresses T4, apelin peptide 1-10 (QRPRLSHKGP). Described as above.
Experiment [20] deals with T5, apelin peptide 1-7 (QRPRLSH). The experiment is described as above.
The target in experiment [21] is T6, apelin peptide 1-9 (QRPRLSHKG). The description is as above.
The target of experiment [22] is T7, apelin peptide 1-11 (QRPRLSHKGPM). The experiment is described as above.
Experiment [23] deals with T8, 1-4. The description is as above.
For experiment [24], the target named is T9, apelin peptide 1-5 (QRPRL). The description is as above.
In experiment [25] the target is T10, apelin 17 (competition peptide 1-17, …). Described as above.
Experiment [26] has as its target T11, apelin peptide 1-8 (QRPRLSHK). The description is as above.
Experiment [27] deals with T12, apelin peptide 1-12 (QRPRLSHKGPMP). The experiment is described as above.
Experiment [28] addresses T13, apelin peptide 1-6 (QRPRLS). Described as above.
Experiment [29] has as its target T14, apelin peptide 2-13 (RPRLSHKGPMPF). Described as above.

Changes are numbered by the printed parent chain. Where two headings read alike, the source gives them in different places. No end group written: not given here. *: point of attachment. Biotin = O=C1N[C@H]2[C@H](CS[C@H]2CCCCC(=O)*)N1

B1: anti-apelin mAb C1 (antibody, V domains shown)
VH: QSLEESGGRLVTPGGSLTLTCTVSGFSLSSYAMDWVRQAPGKGLEWIGVIAPNGATYYPTWARGRFTISKTSTTVDLKMTSLTAADTATYFCATYPIDAGANIWGPGTLVTVSS
VL: DPVLTQTPSSVSAAVGGTVTIGCQSSESVDNNNQLSWYQQKSGQPPKRLMYYVSTLDSGVPSRFKGSGSGTHFTLTISGVQCYDAATYYCQGGYISNLYPFGGGTEVVVK
notes: recombinant rabbit IgG made in HEK293 cells
As for B1, the Kd in [1] was determined as 0.154 pM; in experiment [13], 48.9 pM. Moreover, the binding result is on record as “no binding (tested: 200 ng/ml)” with APL17-Biotin; “no binding (tested: 200 ng/ml)” with Biotin-APL17; “binds” in experiment [2]; “binds” in experiment [3]; “binds” in experiment [4]; “binds” in [5]. Further, the binding result in the experiment with 1-4 [6] was “no binding (tested: peptide concentration not stated)”; in [7] it was “binds”; in experiment [8] it was “no binding (tested: peptide concentration not stated)”; in experiment [9], “binds”; in experiment [10], “binds”; in experiment [11], “binds”. Moreover, the binding result in experiment [12] is recorded as “no binding (tested: peptide concentration not stated)”.

B2: anti-apelin mAb C6 (antibody, V domains shown)
VH: QSLEESGGRLVKPDETLTLTCTVSGIDLSNYAMDWVRQAPGKGLEWIGVIAPNRRTYYPTWARGRFTISKTSSTTVDLKMTSLTTEDTATYFCATYPIEPGANIWGPGTLVTVSS
VL: B1 VL with S10P, A14P, N31Y, S42P, H72Q, G79D, V80L, Q81E, Y83D, L98I
notes: as for B1
Regarding B2, the binding result in experiment [14] is “no binding (tested: peptide concentration not stated)”; in experiment [15] it was “no binding (tested: peptide concentration not stated)”; in [16], “no binding (tested: peptide concentration not stated)”; in experiment [17], “no binding (tested: peptide concentration not stated)”; in experiment [18], “no binding (tested: peptide concentration not stated)”; with APL17-Biotin it was “no binding (tested: 200 ng/ml)”. Besides, the binding result is on record as “no binding (tested: 200 ng/ml)” in the experiment with Biotin-APL17; “binds” in experiment [19]; “binds” in [20]; “binds” in experiment [21]; “binds” in [22]; “no binding (tested: peptide concentration not stated)” with 1-4 [23]. Besides, the binding result in experiment [24] is on record as “binds”; in [25] it was “no binding (tested: peptide concentration not stated)”; in experiment [26], “binds”; in experiment [27], “binds”; in [28], “binds”; in experiment [29], “no binding (tested: peptide concentration not stated)”. The Kd worked out at 0.513 pM in experiment [1] and 5.96 pM in experiment [13].

The record behind these values is patent US20200362021A1 (PHANES THERAPEUTICS, published 2020).
